Results published in US20190255154.

Biological target: T1, acyl ghrelin (active hormone) in mouse blood, Q9EQX0
T1 chain: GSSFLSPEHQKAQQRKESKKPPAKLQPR

B1: native mouse BChE (wild-type mouse butyrylcholinesterase), expressed in mice from an AAV-8 vector (protein)
chain: EEDFIITTKTGRVRGLSMPVLGGTVTAFLGIPYAQPPLGSLRFKKPQPLNKWPDIHNATQYANSCYQNIDQAFPGFQGSEMWNPNTNLSEDCLYLNVWIPVPKPKNATVMVWIYGGGFQTGTSSLPVYDGKFLARVERVIVVSMNYRVGALGFLAFPGNPDAPGNMGLFDQQLALQWVQRNIAAFGGNPKSITIFGESAGAASVSLHLLCPQSYPLFTRAILESGSSNAPWAVKHPEEARNRTLTLAKFTGCSKENEMEMIKCLRSKDPQEILRNERFVLPSDSILSINFGPTVDGDFLTDMPHTLLQLGKVKKAQILVGVNKDEGTAFLVYGAPGFSKDNDSLITRKEFQEGLNMYFPGVSRLGKEAVLFYYVDWLGEQSPEVYRDALDDVIGDYNIICPALEFTKKFAELENNAFFYFFEHRSSKLPWPEWMGVMHGYEIEFVFGLPLGRRVNYTRAEEIFSRSIMKTWANFAKYGHPNGTQGNSTMWPVFTSTEQKYLTLNTEKSKIYSKLRAPQCQFWRLFFPKVLEMTGDIDETEQEWKAGFHRWSNYMMDWQNQFNDYTSKKESCTAL
ratio of desacyl ghrelin (inactive peptide) over the active hormone in mouse blood, ghrelin ELISA, after AAV-BChE gene transfer (HCT116 colon cancer model): 2-fold rise | ratio of desacyl ghrelin (inactive peptide) over the active hormone in mouse blood, ghrelin ELISA, after AAV-BChE gene transfer (triple negative PDX model): 2-fold rise
